{"source": "paper PMC2873105", "about": "(Virology, 2010)", "proteins": {"B1": {"name": "MBP-Rep78 (adeno-associated virus type 2 Rep78 fused to MBP) (enzyme)", "chain": "MPGFYEIVIKVPSDLDGHLPGISDSFVNWVAEKEWELPPDSDMDLNLIEQAPLTVAEKLQRDFLTEWRRVSKAPEALFFVQFEKGESYFHMHVLVETTGVKSMVLGRFLSQIREKLIQRIYRGIEPTLPNWFAVTKTRNGAGGGNKVVDECYIPNYLLPKTQPELQWAWTNMEQYLSACLNLTERKRLVAQHLTHVSQTQEQNKENQNPNSDAPVIRSKTSARYMELVGWLVDKGITSEKQWIQEDQASYISFNAASNSRSQIKAALDNAGKIMSLTKTAPDYLVGQQPVEDISSNRIYKILELNGYDPQYAASVFLGWATKKFGKRNTIWLFGPATTGKTNIAEAIAHTVPFYGCVNWTNENFPFNDCVDKMVIWWEEGKMTAKVVESAKAILGGSKVRVDQKCKSSAQIDPTPVIVTSNTNMCAVIDGNSTTFEHQQPLQDRMFKFELTRRLDHDFGKVTKQEVKDFFRWAKDHVVEVEHEFYVKKGGAKKRPAPSDADISEPKRVRESVAQPSTSDAEASINYADRYQNKCSRHVGMNLMLFPCRQCERMNQNSNICFTHGQKDCLECFPVSESQPVSVVKKAYQKLCYIHHIMGKVPDACTACDLVNVDLDDCIFEQ"}}, "molecular_target": "the molecule itself", "assay": "native gel or EMSA"}
{"protein": "B1", "values": [{"measurement": "binding result", "value": "binds"}]}
